Data published in PMC8338941, “Puf6 primes 60S pre-ribosome nuclear export at low temperature”.

B1: H68 RNA (structured_RNA)
RNA: UGAAGAAAUUCA
B2: KL-TLGAAA (H68-H88-H22 RNA), Cy5 (structured_RNA)
RNA: UGAAGAAAUUCAAAAAAAAAGCUCGGAAUUUGAGCAAAAAAAAAAAACGGUGGUAAAUUCCAUCG

Key:
Puf6-PUM [1] = target: T1, Puf6-PUM (Saccharomyces cerevisiae, UniProt Q04373 161-656); test: fluorescence anisotropy; 27 C; buffer promoting tertiary contact; Anisotropy: 2.5 nM Cy5-RNA, 0.16 nM-20 uM protein, 27 C (stated for H68), buffer composition not in the material; FRET: 20 mM HEPES pH 7.4, 100 mM K+ (116 mM KCl in the supplement), 0-100 mM Mg2+; conditions: protein: recombinant; (pET47-Puf6 (161-656)); label: Cy5 (sCy5); hairpin with GAAA tetraloop
T1 sequence (Q04373 161-656): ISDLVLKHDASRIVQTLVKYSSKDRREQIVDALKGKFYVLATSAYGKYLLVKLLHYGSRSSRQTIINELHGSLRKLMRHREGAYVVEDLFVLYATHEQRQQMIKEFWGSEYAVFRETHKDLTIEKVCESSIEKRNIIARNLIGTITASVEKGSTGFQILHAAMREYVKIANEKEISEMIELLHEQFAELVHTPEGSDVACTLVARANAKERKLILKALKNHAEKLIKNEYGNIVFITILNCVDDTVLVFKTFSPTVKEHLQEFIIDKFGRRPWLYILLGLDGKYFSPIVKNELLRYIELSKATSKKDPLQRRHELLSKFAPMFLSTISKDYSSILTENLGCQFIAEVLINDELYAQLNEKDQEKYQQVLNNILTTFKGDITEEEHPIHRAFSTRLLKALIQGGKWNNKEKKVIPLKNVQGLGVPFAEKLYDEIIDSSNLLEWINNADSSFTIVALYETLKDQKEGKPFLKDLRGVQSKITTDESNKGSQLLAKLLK

Puf6-PUM [2] = target: T1, Puf6-PUM; test: fluorescence anisotropy; buffer promoting tertiary contact; Anisotropy: 2.5 nM Cy5-RNA, 0.16 nM-20 uM protein, 27 C (stated for H68), buffer composition not in the material; FRET: 20 mM HEPES pH 7.4, 100 mM K+ (116 mM KCl in the supplement), 0-100 mM Mg2+; conditions: protein: recombinant; (pET47-Puf6 (161-656)); label: Cy5 (sCy5; sCy3 in the FRET construct); three hairpins, H22-H88 kissing loop, GAAA tetraloop docking

Row | Binder | Kd (Puf6-PUM [1]) | Kd (Puf6-PUM [2])
1 | B1 | ~10 µM | –
2 | B2 | – | ~0.125 µM
